For the test, the target named is GST fused GRP78 protein (GST-GRP78) purified from E. coli (UniProt P11021 19-654). As to the kind of experiment: ELISA.

Several values for one entry are separate records, joined by “and”; a condition that tells them apart may be missing. Equal entries are not always repeated.

B1: toxin-labeled GD17 single-chain antibody (GD17scFv-PE40) (scFv)
scFv: MDHHHHHHHHHHKLQVQLQQSGAELARPGASVKLSCKASGYTFTSYWMHWVKQRPGQGLEWIGAIYPGDGDTRYTQKFKGKATLTADKSSSTAYMQLSSLASEDSAVYYCASGITAVADYWGQGTTLTVSSGGGGSGGGGSGGGGSDVVMTQTPLSLPVSLGDQASISCRSSQSLVHSNGNTYLHWYLQKPGQSPKLLIYKVSNRFSGVPDRFSGSGSGTDFTLKISRVEAEDLGVYFCSQSTHVPLTFGAGTKLELKEFGGAPEFPKPSTPPGSSGLEGGSLAALTAHQACHLPLETFTRHRQPRGWEQLEQCGYPVQRLVALYLAARLSWNQVDQVIRNALASPGSGGDLGEAIREQPEQARLALTLAAAESERFVRQGTGNDEAGAANADVVSLTCPVAAGECAGPADSGDALLERNYPTGAEFLGDGGDVSFSTRGTQNWTVERLLQAHRQLEERGYVFVGYHGTFLEAAQSIVFGGVRARSQDLDAIWRGFYIAGDPALAYGYAQDQEPDARGRIRNGALLRVYVPRSSLPGFYRTSLTLAAPEAAGEVERLIGHPLPLRLDAITGPEEEGGRLETILGWPLAERTVVIPSAIPTDPRNVGGDLDPSSIPDKEQAISALPDYASQPGKPPDYKDDDDKKDEL
Take B1: the EC50 is 1.41 nM and 1.25 nM.

The record behind these values is patent US20100041074A1 (published 2010).
